Source: the supplement of paper PMC10567573

B1: TRIM29 (parent)
chain: FAEKGELRKSIFSESRKPTVSIME
B2: KLHDC10 (parent)
chain: FGGTGIPFGESNGNGVHVCNVKYK

Variants of: B1
Assay: protein stability index of a GFP-peptide fusion (GPS, HEK-293T) (PSI 1-6); higher = more stable
Details: c terminus: a fixed tail appended
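Note: lentivirally expressed fusions sorted by FACS into six bins by GFP to DsRed ratio, PSI derived from sequencing read proportions per bin multiplied by bin number.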

Question: Which protein stability index does the source give for FMEKGELRKSIFSESRKPTVSIME [A2M] here?
Answer: 3.21

Question: With FDEKGELRKSIFSESRKPTVSIME [A2D] as the variant, how does the protein stability index read?
Answer: 3.76

Question: For FPEKGELRKSIFSESRKPTVSIME [A2P], which protein stability index is on record?
Answer: 2.59

Question: With FNEKGELRKSIFSESRKPTVSIME [A2N] as the variant, how does the protein stability index read?
Answer: 2.91

Question: Which protein stability index does the source give for FEEKGELRKSIFSESRKPTVSIME [A2E] here?
Answer: 3.35

Question: With FLEKGELRKSIFSESRKPTVSIME [A2L] as the variant, how does the protein stability index read?
Answer: 2.38

Question: For FCEKGELRKSIFSESRKPTVSIME [A2C], which protein stability index is on record?
Answer: 1.66

Question: Which protein stability index does the source give for FFEKGELRKSIFSESRKPTVSIME [A2F] here?
Answer: 2.52

Question: With FGEKGELRKSIFSESRKPTVSIME [A2G] as the variant, how does the protein stability index read?
Answer: 2.06

Question: With FKEKGELRKSIFSESRKPTVSIME [A2K] as the variant, how does the protein stability index read?
Answer: 3.44

Question: Which protein stability index does the source give for FHEKGELRKSIFSESRKPTVSIME [A2H] here?
Answer: 2.07

Question: Which protein stability index does the source give for FIEKGELRKSIFSESRKPTVSIME [A2I] here?
Answer: 1.89

Question: For AAEKGELRKSIFSESRKPTVSIME [F1A], which protein stability index is on record?
Answer: 4.35

Question: Which protein stability index does the source give for VAEKGELRKSIFSESRKPTVSIME [F1V] here?
Answer: 3.94

Question: With TAEKGELRKSIFSESRKPTVSIME [F1T] as the variant, how does the protein stability index read?
Answer: 3.95

Question: For CAEKGELRKSIFSESRKPTVSIME [F1C], which protein stability index is on record?
Answer: 2.68

Question: With DAEKGELRKSIFSESRKPTVSIME [F1D] as the variant, how does the protein stability index read?
Answer: 4.75

Question: With KAEKGELRKSIFSESRKPTVSIME [F1K] as the variant, how does the protein stability index read?
Answer: 4.27

Question: For LAEKGELRKSIFSESRKPTVSIME [F1L], which protein stability index is on record?
Answer: 3.14

Question: With SAEKGELRKSIFSESRKPTVSIME [F1S] as the variant, how does the protein stability index read?
Answer: 3.58

Question: For NAEKGELRKSIFSESRKPTVSIME [F1N], which protein stability index is on record?
Answer: 4.34

Question: With EAEKGELRKSIFSESRKPTVSIME [F1E] as the variant, how does the protein stability index read?
Answer: 4.13

Question: For HAEKGELRKSIFSESRKPTVSIME [F1H], which protein stability index is on record?
Answer: 4.29

Question: With MAEKGELRKSIFSESRKPTVSIME [F1M] as the variant, how does the protein stability index read?
Answer: 3.73

Question: Which protein stability index does the source give for YAEKGELRKSIFSESRKPTVSIME [F1Y] here?
Answer: 1.45

Question: With PAEKGELRKSIFSESRKPTVSIME [F1P] as the variant, how does the protein stability index read?
Answer: 3.9

Question: For RAEKGELRKSIFSESRKPTVSIME [F1R], which protein stability index is on record?
Answer: 3.66

Question: Which protein stability index does the source give for IAEKGELRKSIFSESRKPTVSIME [F1I] here?
Answer: 3.63

Question: Which protein stability index does the source give for QAEKGELRKSIFSESRKPTVSIME [F1Q] here?
Answer: 3.97

Question: For WAEKGELRKSIFSESRKPTVSIME [F1W], which protein stability index is on record?
Answer: 2.6

Question: Which protein stability index does the source give for GAEKGELRKSIFSESRKPTVSIME [F1G] here?
Answer: 3.89

Variants of: B2
Assay: as above
Details: c terminus: a fixed tail appended

Question: For FGGTGIPFGESNGNGVHVCNVKYW [K24W], which protein stability index is on record?
Answer: 2.61

Question: For FGGTGIPFGESNGNGVHVCNVKYN [K24N], which protein stability index is on record?
Answer: 1.82

Question: For FGGTGIPFGESNGNGVHVCNVKYG [K24G], which protein stability index is on record?
Answer: 1.6

Question: For FGGTGIPFGESNGNGVHVCNVKYV [K24V], which protein stability index is on record?
Answer: 1.66

Question: For FGGTGIPFGESNGNGVHVCNVKYS [K24S], which protein stability index is on record?
Answer: 1.66

Question: For FGGTGIPFGESNGNGVHVCNVKYY [K24Y], which protein stability index is on record?
Answer: 1.88

Question: Which protein stability index does the source give for FGGTGIPFGESNGNGVHVCNVKYA [K24A] here?
Answer: 1.23

Question: With FGGTGIPFGESNGNGVHVCNVKYF [K24F] as the variant, how does the protein stability index read?
Answer: 1

Question: Which protein stability index does the source give for FGGTGIPFGESNGNGVHVCNVKYR [K24R] here?
Answer: 1.63

Question: With FGGTGIPFGESNGNGVHVCNVKYP [K24P] as the variant, how does the protein stability index read?
Answer: 2.11

Question: With FGGTGIPFGESNGNGVHVCNVKYH [K24H] as the variant, how does the protein stability index read?
Answer: 1.57

Question: For FGGTGIPFGESNGNGVHVCNVKYD [K24D], which protein stability index is on record?
Answer: 2.4

Question: Which protein stability index does the source give for FGGTGIPFGESNGNGVHVCNVKYI [K24I] here?
Answer: 1.42

Question: Which protein stability index does the source give for FGGTGIPFGESNGNGVHVCNVKYT [K24T] here?
Answer: 3.32

Question: Which protein stability index does the source give for FGGTGIPFGESNGNGVHVCNVKYE [K24E] here?
Answer: 1.99

Question: For FGGTGIPFGESNGNGVHVCNVKYL [K24L], which protein stability index is on record?
Answer: 2.06

Question: With FGGTGIPFGESNGNGVHVCNVKYQ [K24Q] as the variant, how does the protein stability index read?
Answer: 2

Question: Which protein stability index does the source give for FGGTGIPFGESNGNGVHVCNVKYC [K24C] here?
Answer: 1.75

Question: For FGGTGIPFGESNGNGVHVCNVKYM [K24M], which protein stability index is on record?
Answer: 2.42

Question: For FGGTGIPFGESNGNGVHVCNVEYK [K22E], which protein stability index is on record?
Answer: 2.4

Question: With FGGTGIPFGESNGNGVHVCNVFYK [K22F] as the variant, how does the protein stability index read?
Answer: 1.63

Question: Which protein stability index does the source give for FGGTGIPFGESNGNGVHVCNVRYK [K22R] here?
Answer: 2.34

Question: Which protein stability index does the source give for FGGTGIPFGESNGNGVHVCNVAYK [K22A] here?
Answer: 2.53

Question: With FGGTGIPFGESNGNGVHVCNVQYK [K22Q] as the variant, how does the protein stability index read?
Answer: 2.89

Question: Which protein stability index does the source give for FGGTGIPFGESNGNGVHVCNVWYK [K22W] here?
Answer: 2.1

Question: Which protein stability index does the source give for FGGTGIPFGESNGNGVHVCNVPYK [K22P] here?
Answer: 1.91

Question: Which protein stability index does the source give for FGGTGIPFGESNGNGVHVCNVLYK [K22L] here?
Answer: 1.29

Question: For FGGTGIPFGESNGNGVHVCNVDYK [K22D], which protein stability index is on record?
Answer: 2.35

Question: For FGGTGIPFGESNGNGVHVCNVMYK [K22M], which protein stability index is on record?
Answer: 1.9

Question: With FGGTGIPFGESNGNGVHVCNVHYK [K22H] as the variant, how does the protein stability index read?
Answer: 2.07

Question: For FGGTGIPFGESNGNGVHVCNVIYK [K22I], which protein stability index is on record?
Answer: 1.83

Question: Which protein stability index does the source give for FGGTGIPFGESNGNGVHVCNVTYK [K22T] here?
Answer: 1.98

Question: With FGGTGIPFGESNGNGVHVCNVGYK [K22G] as the variant, how does the protein stability index read?
Answer: 1.98

Question: With FGGTGIPFGESNGNGVHVCNVYYK [K22Y] as the variant, how does the protein stability index read?
Answer: 1.95

Question: With FGGTGIPFGESNGNGVHVCNVNYK [K22N] as the variant, how does the protein stability index read?
Answer: 1.8

Question: Which protein stability index does the source give for FGGTGIPFGESNGNGVHVCNVCYK [K22C] here?
Answer: 1.24

Question: With FGGTGIPFGESNGNGVHVCNVVYK [K22V] as the variant, how does the protein stability index read?
Answer: 2.24

Question: Which protein stability index does the source give for FGGTGIPFGESNGNGVHVCNVSYK [K22S] here?
Answer: 1.29

Question: With FGGTGIPFGESNGNGVHVCFVKYK [N20F] as the variant, how does the protein stability index read?
Answer: 2.06

Question: Which protein stability index does the source give for FGGTGIPFGESNGNGVHVCSVKYK [N20S] here?
Answer: 1.65

Question: With FGGTGIPFGESNGNGVHVCCVKYK [N20C] as the variant, how does the protein stability index read?
Answer: 1.11

Question: For FGGTGIPFGESNGNGVHVCDVKYK [N20D], which protein stability index is on record?
Answer: 1.98

Question: With FGGTGIPFGESNGNGVHVCQVKYK [N20Q] as the variant, how does the protein stability index read?
Answer: 1.87

Question: With FGGTGIPFGESNGNGVHVCKVKYK [N20K] as the variant, how does the protein stability index read?
Answer: 2.44

Question: For FGGTGIPFGESNGNGVHVCVVKYK [N20V], which protein stability index is on record?
Answer: 1.55

Question: Which protein stability index does the source give for FGGTGIPFGESNGNGVHVCHVKYK [N20H] here?
Answer: 1.48

Question: Which protein stability index does the source give for FGGTGIPFGESNGNGVHVCMVKYK [N20M] here?
Answer: 1.38

Question: Which protein stability index does the source give for FGGTGIPFGESNGNGVHVCAVKYK [N20A] here?
Answer: 2.35

Question: For FGGTGIPFGESNGNGVHVCEVKYK [N20E], which protein stability index is on record?
Answer: 1.92

Question: With FGGTGIPFGESNGNGVHVCWVKYK [N20W] as the variant, how does the protein stability index read?
Answer: 2.83

Question: Which protein stability index does the source give for FGGTGIPFGESNGNGVHVCGVKYK [N20G] here?
Answer: 1.66

Question: For FGGTGIPFGESNGNGVHVCRVKYK [N20R], which protein stability index is on record?
Answer: 2.15

Question: Which protein stability index does the source give for FGGTGIPFGESNGNGVHVCIVKYK [N20I] here?
Answer: 1.82

Question: With FGGTGIPFGESNGNGVHVCYVKYK [N20Y] as the variant, how does the protein stability index read?
Answer: 2.23

Question: With FGGTGIPFGESNGNGVHVCTVKYK [N20T] as the variant, how does the protein stability index read?
Answer: 1.75

Question: Which protein stability index does the source give for FGGTGIPFGESNGNGVHVCPVKYK [N20P] here?
Answer: 1.52

Question: With FGGTGIPFGESNGNGVHVCLVKYK [N20L] as the variant, how does the protein stability index read?
Answer: 1.36

Question: Which protein stability index does the source give for FGGTGIPFGESNGNGWHVCNVKYK [V16W] here?
Answer: 2.49

Question: With FGGTGIPFGESNGNGTHVCNVKYK [V16T] as the variant, how does the protein stability index read?
Answer: 1.98

Question: Which protein stability index does the source give for FGGTGIPFGESNGNGSHVCNVKYK [V16S] here?
Answer: 2.27

Question: With FGGTGIPFGESNGNGRHVCNVKYK [V16R] as the variant, how does the protein stability index read?
Answer: 2.97

Question: With FGGTGIPFGESNGNGYHVCNVKYK [V16Y] as the variant, how does the protein stability index read?
Answer: 1.89

Question: For FGGTGIPFGESNGNGVHVHNVKYK [C19H], which protein stability index is on record?
Answer: 1.46
